± gives the uncertainty stated by the source.

This series is described as follows: amyloid nucleation score (Sup35N fusion, yeast selection) (log enrichment); library NNK1; higher = more nucleation; inactive = no reads after selection. The method in brief:
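On medium lacking adenine and uracil, psi-negative yeast expressing peptides of 20 random codons fused to Sup35N were grown 7 days at 30°C after a 24-hour induction with 100 μM copper sulfate. Illumina sequencing of input and output plasmid inserts gave the reads, and sequences under 100 input reads were excluded. The nucleation score is the DiMSum log enrichment of output over input reads, centred on the mode score of non-aggregating sequences.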
As to PRTYMIRNWKSTNNSLASPK, the amyloid nucleation score was -1.09 ± 1.5.
For WVSKNRSSFMGCSSFTATWT, the amyloid nucleation score worked out at 0.884 ± 0.69.
The same measure for LSIEQTLQEAGILDYPSRIT: -0.155 ± 0.35.
In the case of YIRGNFYSYQWGNCFMGNFC, the amyloid nucleation score is 7.792 ± 0.05.
The same measure for VLAVCKVYASWYFTFWMF: 4 ± 0.088; for LWLNLILCFQWDPQRKC: 4.09 ± 0.11.
For RVIGTGYECTNATEDSLSYL the value was “inactive”.
The substance VVLQTTPSAYSIMVHLWYYS showed an amyloid nucleation score of 0.472 ± 0.46.
The same measure for LTEDLNMPSWCKP: 0.087 ± 0.7; for TRMRLPP: -0.299 ± 0.48; for RYRRATTQFAKGHCRSLSFK: 0.91 ± 0.47.
For NVAGMSPQSWVVDTSSR the value was 1.34 ± 0.4; for QPALPSGPVDQS, 0.42 ± 0.35.
The same measure for VKSWVPTDVGFEQQSGREVL: 0.093 ± 0.25; for SATPGRGY: 0.851 ± 0.24.
Substance WSFLANFNWMN came in with an amyloid nucleation score of 0.157 ± 1.4.
The same measure for MSHFCLSLGAAASMNPLQLG: -0.309 ± 1.1; for DSQFAVKFCAR: “inactive”; for VDPGDVVFLLRPRSEHWGVG: 2.12 ± 0.18.
The same measure for YTGIPRSS: 0.203 ± 0.28; for CLSGGFMPTYKVIWRQGCYG: “inactive”.
In the case of MVAMVNT, the amyloid nucleation score was -0.087 ± 0.28.
The same measure for ARLLSQVEAEASWSNTY: 0.568 ± 0.43; for GRSCKFCYVTWVVPEP: 1.25 ± 0.2; for GKQGRIQDSVYDWCCCNLSG: 0.255 ± 1.2.
For RLSQLVLVVWTAQGC the value was -0.006 ± 0.63; for TIFTPNIR, 0.132 ± 0.66.
For RARDV the value was 0.167 ± 0.38.
The substance FIGVLIRSVCQSGARIV showed an amyloid nucleation score of 0.514 ± 0.17.
For AHCLLIALTCCRKNNKNVSC the value was 0.902 ± 0.44; for GVHYYHLASWTWISFLITRR, 0.424 ± 0.85.
For ATTALAMGGSNDTMGYGVRC the value was 0.006 ± 0.4.
The same measure for LVTCLLHAG: -1.38 ± 0.58; for YFPIGYFVRKEDYGTCENDD: 0.386 ± 0.31; for RLSIS: “inactive”.
As to QGLLPDIYVALSLCGVPGTD, the amyloid nucleation score is -0.262 ± 0.59.
The same measure for FLLGRNFNLANSNFHSVICL: 0.24 ± 0.88.
As to TYWYSVRNVAQLCPVEGYQS, the amyloid nucleation score is -0.102 ± 0.7.
For HDQSYSHSGSNGFRQKNEAN the value was 1.32 ± 0.5; for QIWPKAWPLFWPRNRKYANR, -0.077 ± 0.26.
For CACVIRIFNLMVMWDILYWS the value was 0.748 ± 1.2.
WVWLHDKASLNLL: the amyloid nucleation score worked out at 0.007 ± 0.72.
For the substance HVTKMNCPLCQVKLGNYPVY, the amyloid nucleation score is -0.546 ± 0.49.
For RSFIVCSRNRVGLTNFRCLE the value was 0.364 ± 0.84.
The same measure for SDVVFYFGDAGFRMLSEDSR: -0.326 ± 0.55; for GPVSGHRPIVRD: -0.179 ± 1.1; for QIFYSFTLYCNRNGWRDVFL: 0.269 ± 0.59.
For DIRWGVSFIKGNFHTEL the value was “inactive”.
FLSVLNFVRIIEKEVGRNRN yielded an amyloid nucleation score of 1.79 ± 0.15.
The substance CCIVSGFALSSTTRMNVR gave an amyloid nucleation score of 1.77 ± 0.15.
The same measure for WQHSPTYGYLYIHC: 0.633 ± 0.18.
The same measure for TGMGGV: 0.177 ± 1.2; for GGTSIPVVGNQGMIGYVPCD: 0.825 ± 0.43; for YYFKRNTCCAAVLKHPFPVS: 0.019 ± 0.99.
For IYMMECEVL the value was -0.157 ± 0.42.
Substance EYFMRGLLWLI returned an amyloid nucleation score of 0.795 ± 0.39.
The same measure for NASSLVRTDCHSMRKESSMR: 0.052 ± 0.4.
As for LLQAQHSF, the amyloid nucleation score was 0.208 ± 0.21.
EICYRMICCYSN: the amyloid nucleation score was 0.085 ± 0.66.
The substance LLGVGCNRIDWLNGAKN had an amyloid nucleation score of 2.04 ± 0.49.
The substance DRLWIWQGNIVASIYKSCLL showed an amyloid nucleation score of 5.41 ± 0.068.
With YSLEFSSFMLFLTCLVSYNY, the amyloid nucleation score is -0.457 ± 0.4.
The same measure for ILPEPGMLFDIILNLHAKKF: 2.65 ± 0.11.
For SDFVWRCFAMSIRLKRLYRS, the amyloid nucleation score was -0.68 ± 1.7.
The same measure for YKRCAPDRHYG: 1.06 ± 0.58; for LEQFMTRYRSDIVYCCDSGS: “inactive”.
The same measure for CGLERTCRRGPSELTCTLYE: -0.201 ± 0.56.
For VFCVRYLRANISCEGHDGWY the value was 2.28 ± 0.14.
With PYTWTTTVPSAPKGLF, the amyloid nucleation score came to 0.096 ± 0.48.
For LNYDLWTKILNDVVVVCNRF the value was -0.185 ± 0.4.
As for CKTCFTLRKIF, the amyloid nucleation score is -0.461 ± 0.38.
For LCTFIVWKMPICPMWWGW the value was 0.255 ± 0.2; for LDMTTTLLVSLESDG, 0.04 ± 0.73; for VKIKEKFKA, -0.189 ± 0.42.
The same measure for MKFDYFRRC: -0.471 ± 0.5; for AAVLGFCSWNLRRRIMEF: -0.864 ± 1.4; for FVRCSAKMDLWSVLTVCSFC: 3.2 ± 0.12.
For TYLYNYILASSLSHRALYNA the value was 1.62 ± 0.73; for PFRVLWTCITG, -0.229 ± 1.4; for TLHYRWECVLCPACRYGLSD, 1.14 ± 0.68.
In the case of SVLWCPRCRYCKFAGVRTWK, the amyloid nucleation score is -0.398 ± 0.97.
For LDMECYYSIYRSESNVCMWI the value was 1.31 ± 0.93; for RMDFMWLVKI, 4.57 ± 0.056; for ICMKLLFEYLVPVLRQAH, -0.307 ± 1.2.
The same measure for GKRDRMLQQIGWKLTYRCWN: 0.522 ± 0.66.
The same measure for IFWGWSIQG: 1.17 ± 0.58; for VRNDLNTH: 0.377 ± 0.19; for GWTTYPSNN: 0.996 ± 0.37.
For the substance SMYKMDMSLSTWCWFAWHDH, the amyloid nucleation score is -0.37 ± 0.45.
The same measure for GFYRAERYSRFMRAVGRLSN: -0.771 ± 0.76.
In turn, LHCFMWFFHIDN yielded an amyloid nucleation score of 7.456 ± 0.057.
For the substance CESQMSRVDVLSCYMYGSVM, the amyloid nucleation score came to 0.303 ± 0.4.
VNSRCLSAYTK gave an amyloid nucleation score of 0.46 ± 0.34.
RLYKFTGF displayed an amyloid nucleation score of 1.09 ± 0.37.
The same measure for LTNNVYSYVWILSSARISIV: 0.87 ± 0.22; for TAMRSHLSVPSNVTLPCIKH: 0.082 ± 0.46; for MRGYPENKLSRSCQCRMRRY: -0.213 ± 0.74.
On to MYSISCIVNY, for which the amyloid nucleation score amounted to 2.56 ± 0.15.
For VEGRRFDINAWRDWTKGVR the value was -0.238 ± 0.3.
VEVYFSFLNLIFSGMSVLVE: the amyloid nucleation score amounted to 0.129 ± 0.28.
The same measure for YFRLHSFFFVESQGICVELR: -0.251 ± 0.69.
The same measure for NRYSYYFLLI: 3.16 ± 0.1; for YYYVWNFGGWIGFRNVVSIR: 0.05 ± 0.98; for ANMDWGRAMFWDGRVGMVRS: -0.645 ± 1.7.

Source of the values: the supplement of paper PMC12042874.
